Measured values published in patent publication US20100255008A1 (Hoffmann-La Roche, published 2010).

T1: human Flag-tagged soluble TWEAK (amino acids 106-249) (human, UniProt O43508 106-249)
T1 construct: the tag is put first here only by convention; also called Human TWEAK; not shown: Flag tag
T1 sequence (looked up): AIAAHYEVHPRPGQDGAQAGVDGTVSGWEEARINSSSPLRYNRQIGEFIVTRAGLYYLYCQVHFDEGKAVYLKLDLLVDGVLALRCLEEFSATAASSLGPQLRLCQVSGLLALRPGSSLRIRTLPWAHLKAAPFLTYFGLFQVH

T2: Human recombinant soluble TWEAK (human, UniProt O43508 99-249, limits assumed)
T2 sequence (looked up): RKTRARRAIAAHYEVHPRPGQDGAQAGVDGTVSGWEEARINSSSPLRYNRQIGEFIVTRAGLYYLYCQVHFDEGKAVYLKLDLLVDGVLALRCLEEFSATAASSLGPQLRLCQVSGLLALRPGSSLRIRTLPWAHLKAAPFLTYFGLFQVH

T3: Biotinylated human soluble TWEAK (human, UniProt O43508 99-249, limits assumed, biotinylated (sites not given))
T3 construct: also called Human TWEAK
T3 sequence (looked up): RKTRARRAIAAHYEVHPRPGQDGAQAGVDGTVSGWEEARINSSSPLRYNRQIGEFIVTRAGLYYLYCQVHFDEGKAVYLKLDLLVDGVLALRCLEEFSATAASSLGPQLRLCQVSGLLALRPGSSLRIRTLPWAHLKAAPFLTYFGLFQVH


What was measured:
[1] = biological target: T1, human Flag-tagged soluble TWEAK (amino …); assay: receptor interaction ELISA: antibody pre-incubated with human Flag-tagged soluble TWEAK, binding to coated human Fn14:Fc
Experimental: Blocking of human TWEAK/human Fn14 interaction was shown by receptor interaction ELISA. 96-well Maxisorp® plates (Nunc) were coated with 100 μl 1 μg/ml human Fn14:Fc (extracellular domain of human Fn14 (amino acids 1-75) fused to Fc portion of human IgG1) in PBS per well for 1.5 h at room temperature and blocked with a solution of 5% FBS in PBS for 30 minutes at room temperature under shaking. […] Wells were filled with 100 μl of anti-FLAG-HRP detection antibody, diluted 1:5000 in blocking buffer, and incubated for 1 h at room temperature. After four more wash steps, the signal was developed by addition of 100 μl 3,3,5,5-Tetramethylbenzidine (TMB) solution for approximately ten minutes. The reaction was stopped by adding 100 μl of 1 N HCl, and absorbance measured at 450 nm (reference wavelength 620 nm).

[2] = biological target: T2, Human recombinant soluble TWEAK; assay: cell-based or functional assay
[3] = biological target: T3, Biotinylated human soluble TWEAK; assay: Biacore SPR, biotinylated human soluble TWEAK on streptavidin sensor, antibody 100 nM as analyte, 25° C.
Experimental: A Biacore 2000 instrument was used with a Biacore streptavidin coated sensor mounted into the system. The system buffer HBS-ET (10 mM HEPES pH 7.4, 150 mM NaCl, 1 mM EDTA, 0.05% Tween® 20) was used at a flow rate of 100 μl/min. The sample buffer was the system buffer. Biotinylated human soluble TWEAK and biotinylated murine soluble TWEAK was immobilized on different flow cells on the SA sensor at 150 RU each. The flow cell FC1 was used as a blank reference cell. Each antibody was injected into the system as an analyte at 100 nM at 100 μl/min for 2 min association time. The dissociation of the immunecomplexes were monitored for 5 min. The sensor surface was washed with HBS-ET for 10 seconds and regenerated using 2×2 minutes injections with 10 mM glycine pH 2.25. This procedure was done at 25° C. The kinetically rate limiting step of the complex dissociation phase in the interval [240 s-300 s] was taken to calculate the dissociation rate kd [1/s] (Biacore Evaluation Software 4.0). According to the equation t1/2 diss=ln(2)/(60×kd), the half-life of each immunocomplexe in minutes was calculated.

Row | IC50 [1] | IL-8 Secretion IC50 [2] | t/2 diss. [min] 25° C. [3] | t/2 diss [min] 25° C. [3] | Binder
1 | 0.014 µg/mL | 0.141 µg/mL | 18 min | – | Antibody 15 (antibody, V domains shown) VH: QVQLQESGPGLVKPSETLSLTCAVSGYSIRSGYWWSWIRQPPGKGLEWIGQIYNKGNTDNNPALKSRVTISVDTSKNQFSLKLSSVTAADTAVYYCARVFWDDAYFDVWGQGTMVTVSS VL: EIVLTQSPATLSLSPGERATLSCKASQSVSIGPIHLMHWYQQKPGQAPRLLIYGASNPESGIPARFSGSGSGTDFTLTISSLEPEDFAVYYCQQGKESPRTFGQGTKLEIK
2 | 0.016 µg/mL | 0.189 µg/mL | 16 min | – | Antibody 18 (antibody, V domains shown) VH: QVQLQESGPGLVKPSETLSLTCTVSGYSIRSGYWWSWIRQPPGKGLEWIGQIYNKGNTDNSPSLKSRVTISVDTSKNQFSLKLSSVTAADTAVYYCARVFWDDAYFDVWGQGTMVTVSS VL: EIVLTQSPATLSLSPGERATLSCKASQSVSIGPIHLMHWYQQKPGQAPRLLIYGASNPESGIPARFSGSGSGTDFTLTISSLEPEDFAVYYCQQGKESPRTFGQGTKLEIK
3 | 0.014 µg/mL | 0.146 µg/mL | 18 min | – | Antibody 17 (antibody, V domains shown) VH: QVQLQESGPGLVKPSETLSLTCTVSGYSIRSGYWWSWIRQPPGKGLEWIGQIYNKGNTDNNPALKSRVTISVDTSKNQFSLKLSSVTAADTAVYYCARVFWDDAYFDVWGQGTMVTVSS VL: EIVLTQSPATLSLSPGERATLSCKASQSVSIGPIHLMHWYQQKPGQAPRLLIYGASNPESGIPARFSGSGSGTDFTLTISSLEPEDFAVYYCQQGKESPRTFGQGTKLEIK
4 | 0.012 µg/mL | 0.224 µg/mL | 17 min | – | Antibody 21 (antibody, V domains shown) VH: QVQLQESGPGLVKPSETLSLTCAVSGYSIRSGYWWSWIRQPPGKGLEWIGQIYNKGNTDNNPALKSRVTISVDTSKNQFSLKLSSVTAADTAVYYCARVFWDDAYFDVWGQGTMVTVSS VL: EIVLTQSPGTLSLSPGERATLSCKASQSVSIGPIHLMHWYQQKPGQAPRLLIYGASNPESGIPDRFSGSGSGTDFTLTISRLEPEDFAVYYCQQGKESPRTFGQGTKLEIK
5 | 0.042 µg/mL | 0.475 µg/mL | 17 min | – | Antibody 25 (antibody, V domains shown) VH: QVQLQESGPGLVKPSETLSLTCAVSGYSIRSGYWWSWIRQQPGKGLEWIGQIYNKGNTDNNPALKSQVTISVDTSKNQFSLKLSSVTAADTAVYYCARVFWDDAYFDVWGQGTMVTVSS VL: EIVLTQSPGTLSLSPGERATLSCKASQSVSIGPIHLMHWYQQKPGQAPRLLIYGASNPESGIPDRFSGSGSGTDFTLTISRLEPEDFAVYYCQQGKESPRTFGQGTKLEIK
6 | 0.013 µg/mL | 0.242 µg/mL | 17 min | – | Antibody 23 (antibody, V domains shown) VH: QVQLQESGPGLVKPSETLSLTCTVSGYSIRSGYWWSWIRQPPGKGLEWIGQIYNKGNTDNNPALKSRVTISVDTSKNQFSLKLSSVTAADTAVYYCARVFWDDAYFDVWGQGTMVTVSS VL: EIVLTQSPGTLSLSPGERATLSCKASQSVSIGPIHLMHWYQQKPGQAPRLLIYGASNPESGIPDRFSGSGSGTDFTLTISRLEPEDFAVYYCQQGKESPRTFGQGTKLEIK
7 | 0.022 µg/mL | 0.163 µg/mL | 15 min | – | Antibody 16 (antibody, V domains shown) VH: QVQLQESGPGLVKPSETLSLTCAVSGYSIRSGYWWSWIRQPPGKGLEWIGQIYNKGNTDNSPSLKSRVTISVDTSKNQFSLKLSSVTAADTAVYYCARVFWDDAYFDVWGQGTMVTVSS VL: EIVLTQSPATLSLSPGERATLSCKASQSVSIGPIHLMHWYQQKPGQAPRLLIYGASNPESGIPARFSGSGSGTDFTLTISSLEPEDFAVYYCQQGKESPRTFGQGTKLEIK
8 | 0.015 µg/mL | 0.253 µg/mL | 17 min | – | Antibody 19 (antibody, V domains shown) VH: QVQLQESGPGLVKPSETLSLTCAVSGYSIRSGYWWSWIRQQPGKGLEWIGQIYNKGNTDNNPALKSQVTISVDTSKNQFSLKLSSVTAADTAVYYCARVFWDDAYFDVWGQGTMVTVSS VL: EIVLTQSPATLSLSPGERATLSCKASQSVSIGPIHLMHWYQQKPGQAPRLLIYGASNPESGIPARFSGSGSGTDFTLTISSLEPEDFAVYYCQQGKESPRTFGQGTKLEIK
9 | 0.035 µg/mL | 0.401 µg/mL | 15 min | – | Antibody 20 (antibody, V domains shown) VH: QVQLQESGPGLVKPSETLSLTCAVSGYSIRSGYWWSWIRQQPGKGLEWIGQIYNKGNTDNSPSLKSQVTISVDTSKNQFSLKLSSVTAADTAVYYCARVFWDDAYFDVWGQGTMVTVSS VL: EIVLTQSPATLSLSPGERATLSCKASQSVSIGPIHLMHWYQQKPGQAPRLLIYGASNPESGIPARFSGSGSGTDFTLTISSLEPEDFAVYYCQQGKESPRTFGQGTKLEIK
10 | 0.017 µg/mL | 0.249 µg/mL | 14 min | – | Antibody 22 (antibody, V domains shown) VH: QVQLQESGPGLVKPSETLSLTCAVSGYSIRSGYWWSWIRQPPGKGLEWIGQIYNKGNTDNSPSLKSRVTISVDTSKNQFSLKLSSVTAADTAVYYCARVFWDDAYFDVWGQGTMVTVSS VL: EIVLTQSPGTLSLSPGERATLSCKASQSVSIGPIHLMHWYQQKPGQAPRLLIYGASNPESGIPDRFSGSGSGTDFTLTISRLEPEDFAVYYCQQGKESPRTFGQGTKLEIK
11 | 0.094 µg/mL | 0.222 µg/mL | 16 min | – | Antibody 26 (antibody, V domains shown) VH: QVQLQESGPGLVKPSETLSLTCAVSGYSIRSGYWWSWIRQQPGKGLEWIGQIYNKGNTDNSPSLKSQVTISVDTSKNQFSLKLSSVTAADTAVYYCARVFWDDAYFDVWGQGTMVTVSS VL: EIVLTQSPGTLSLSPGERATLSCKASQSVSIGPIHLMHWYQQKPGQAPRLLIYGASNPESGIPDRFSGSGSGTDFTLTISRLEPEDFAVYYCQQGKESPRTFGQGTKLEIK
12 | 0.02 µg/mL | 0.165 µg/mL | 15 min | – | Antibody 24 (antibody, V domains shown) VH: QVQLQESGPGLVKPSETLSLTCTVSGYSIRSGYWWSWIRQPPGKGLEWIGQIYNKGNTDNSPSLKSRVTISVDTSKNQFSLKLSSVTAADTAVYYCARVFWDDAYFDVWGQGTMVTVSS VL: EIVLTQSPGTLSLSPGERATLSCKASQSVSIGPIHLMHWYQQKPGQAPRLLIYGASNPESGIPDRFSGSGSGTDFTLTISRLEPEDFAVYYCQQGKESPRTFGQGTKLEIK
13 | 0.0092 µg/mL | 0.146 µg/mL | – | 53 min | TW202 (antibody, V domains shown, Armenian hamster monoclonal antibody; also called Antibody 202) VH: QLQLQESGLGLVKPSQSLTLTCSVTGFSITTPDYSWHWIRQLPGQTLEWMGFLYYEGDTYYNPSLKSRISIARDASKNQFFLQLKAVTTEDTATYFCARRKYSGYGNWFAYWGQGTLVTVSL VL: QPVLTQSPSASASLRASVKLTCTLSSQHSTYYIEWYQQRPDKAPKYVMYLDSDGSHIKGDGIPDRFSGSSSGAHRYLSISNLQPEDEAIYHCGVYDSTAGAVFGSGTQLTVLG
14 | 0.0088 µg/mL | 0.151 µg/mL | – | 30 min | TW205 (antibody, V domains shown, Armenian hamster monoclonal antibody; also called Antibody 205) VH: QIHLQESGLGLVKPSQSLTLTCSVTGFSITTPDYSWHWIRQFPGQTLEWMGFLYYEGDTYYNPSLKSRISIARDASKNQFFLQLKSVTTEDTATYFCVRRKYSGYGNWFAYWGQGTQVTVSS VL: QPVLTQAPSASASLRASVKLTCTLSSQHSTYYIEWYQQHPDKAPRYVMYVDSDGSHIKGDGVPDRFSGSSSGARRYLSISNLQPEDEAIYHCGVYDSTAGAVFGSGTQLTVLG
15 | 0.0134 µg/mL | – | – | 13 min | TW212chi (antibody, human IgG1) light: DIVLTQSPAYLTMSPGQTTTISCKASQSVSIGPIHLMHWYQQKPGQPPRLLIYGASNPESGVPARFSGSGSGTDFTLTIHPVEADDAATYFCQQGKESPRTFGPGTKLEITRTVAAPSVFIFPPSDEQLKSGTASVVCLLNNFYPREAKVQWKVDNALQSGNSQESVTEQDSKDSTYSLSSTLTLSKADYEKHKVYACEVTHQGLSSPVTKSFNRGEC heavy: not shown
